According to patent US20260193377A1 (FULL LIFE TECHNOLOGIES HK, published 2026):
Substitutions are numbered along the chain they refer to.

B1: anti-GCC single domain antibody SEQ ID NO. 9 (VHH)
VHH: QKQLVESGGGLVQPGGSLRLSCAASGETLSNYNIGWFRQAPGKEREGVSCISQIGFTNYADSVKGRFTLFRASAENTVYLQMNSLKPEDTAVYYCAVTGGRWASCSFLPLRQDFESWGQGTLVTVSS
notes: Alpaca-derived sdAb
B2: anti-GCC single domain antibody SEQ ID NO. 6 (VHH)
VHH: QVQVVESGGGLVQAGGSLRLSCAASGRAFSSYAMGWFRQAPGKQRELVAVITSGGSTNYADSVKGRFTISRDNAKNTVYLQMNSLKPEDTAVYYCAAGTGYGGGFLIGYDYWGQGTQVTVSS
notes: Alpaca-derived sdAb
B3: anti-GCC single domain antibody SEQ ID NO. 1 (VHH)
VHH: QVQLVESGGGLVQAGGSLRLSCTGSARPFSNYGMGWFRQAPGKEREFVAAISGGGVYTDFADAVKGRFTISRDNAKNTVYLQMNSLKPEDTAVYYCARARTARVVSRRHEYDYWGQGTQVTVSS
notes: Alpaca-derived sdAb
B4: anti-GCC single domain antibody SEQ ID NO. 3 (VHH)
VHH: B3 VHH with L4F, G24A, A26G, R27G, P28I, A63S, N74R, V104L, V105T, E110D
notes: Alpaca-derived sdAb
B5: anti-GCC single domain antibody SEQ ID NO. 2 (VHH)
VHH: B3 VHH with G24A, A26G, R27G, P28T, S30V, T58R, A63S, V93L, A102P, S106N
notes: Alpaca-derived sdAb
B6: anti-GCC single domain antibody SEQ ID NO. 8 (VHH)
VHH: EVDLVESGGGLVQPGGSLRLSCGASGFTFSHYAMSWVRQAPGKALEWVSDISSGGGITKYADSVKGRFTISRDDAQNTLYLQMNSLKPEDTAVYYCAKASAIGYLAYWMRNPVEYDTRGQGTLVTVSS
notes: Alpaca-derived sdAb
B7: anti-GCC single domain antibody SEQ ID NO. 7 (VHH)
VHH: QVQLVESGGGLVQPGGSLRLSCAASGSRFMTSSMGWYRQTPGKQREWVATATSSDSTLYADAVKGRFTISRDNAKNTVYLQMNSLKPQDTAVYYCFTTPPTFWGHGTQVTVSS
notes: Alpaca-derived sdAb
B8: anti-GCC single domain antibody SEQ ID NO. 5 (VHH)
VHH: AVQLVESGGGLVQPGGSLRLSCAASGSTISINVMGWYRQAPGKQRDLVAAISSVGSTYYADSVKGRFTISRDNAKNTVYLQMNSLKPEDTAVYYCNAKSLISDYWGQGTQVTVSS
notes: Alpaca-derived sdAb
B9: humanized anti-GCC single domain antibody SEQ ID NO. 86 (VHH)
VHH: B3 VHH with Q1E, A14P, K43N, A63S, A75S, V79L, K87R, P88A
notes: 1
B10: humanized anti-GCC single domain antibody SEQ ID NO. 113 (VHH)
VHH: B6 VHH with D3Q, D74N, A75S, Q76K, K87R, P88A
notes: 8
B11: humanized anti-GCC single domain antibody SEQ ID NO. 112 (VHH)
VHH: B6 VHH with D3Q, G23A, K59Y, D74N, A75S, Q76K, K87R, P88A
notes: 8
B12: humanized anti-GCC single domain antibody SEQ ID NO. 114 (VHH)
VHH: B6 VHH with E1Q, D3Q, G23A, K59Y, K65A, D74N, A75S, Q76R, K87R, P88A
notes: 8
B13: humanized anti-GCC single domain antibody SEQ ID NO. 108 (VHH)
VHH: B7 VHH with Q1E, A62S, K75R, T77S, V78L, K86R, P87A, Q88E
notes: 7
B14: humanized anti-GCC single domain antibody SEQ ID NO. 107 (VHH)
VHH: B7 VHH with Q1E, A62S, T77S, V78L, K86R, P87A, Q88E
notes: 7
B15: humanized anti-GCC single domain antibody SEQ ID NO. 109 (VHH)
VHH: B7 VHH with Q1E, K43N, A62S, T77S, V78L, K86R, P87A, Q88E
notes: 7
B16: humanized anti-GCC single domain antibody SEQ ID NO. 110 (VHH)
VHH: B7 VHH with Q1E, K43N, Q44G, A62S, T77S, V78L, K86R, P87A, Q88E
notes: 7
B17: humanized anti-GCC single domain antibody SEQ ID NO. 83 (VHH)
VHH: EVQLVESGGGLVQPGGSLRLSCAASARPFSNYGMGWFRQAPGKEREFVAAISGGGVYTYYADSVKGRFTISRDNSKNTLYLQMNSLRAEDTAVYYCARARTARVVSRRHEYDYWGQGTQVTVSS
notes: 1
B18: humanized anti-GCC single domain antibody SEQ ID NO. 94 (VHH)
VHH: B17 VHH with A26G, R27G, P28I, K76R, V104L, V105T, E110D
notes: 3
B19: humanized anti-GCC single domain antibody SEQ ID NO. 92 (VHH)
VHH: B17 VHH with A26G, R27G, P28I, V104L, V105T, E110D
notes: 3
B20: humanized anti-GCC single domain antibody SEQ ID NO. 88 (VHH)
VHH: B17 VHH with A26G, R27G, P28T, S30V, T58R, A102P, S106N
notes: 2
B21: humanized anti-GCC single domain antibody SEQ ID NO. 85 (VHH)
VHH: B17 VHH with K76R
notes: 1
B22: humanized anti-GCC single domain antibody SEQ ID NO. 100 (VHH)
VHH: B8 VHH with A74S, V78L, K86R, P87A
notes: 5
B23: humanized anti-GCC single domain antibody SEQ ID NO. 101 (VHH)
VHH: B8 VHH with K64A, A74S, K75R, V78L, K86R, P87A
notes: 5
B24: humanized anti-GCC single domain antibody SEQ ID NO. 116 (VHH)
VHH: QVQLVESGGGLVKPGGSLRLSCAASGETLSNYNIGWFRQAPGKEREGVSCISQIGFTNYADSVKGRFTISRDNAKNSLYLQMNSLRAEDTAVYYCAVTGGRWASCSFLPLRQDFESWGQGTLVTVSS
notes: 9
B25: humanized anti-GCC single domain antibody SEQ ID NO. 96 (VHH)
VHH: QSQLVESGGGLVQPGGSLRLSCAASGSTLDHYATAWFRRAPGKEREGISYISSGGGSTYYADSVKGRFTISRDNSKNTLYLQMNSLRAEDTAVYYCASKRRFNTGWSEPSDYNVWGQGTQVTVTS
notes: 4
B26: humanized anti-GCC single domain antibody SEQ ID NO. 97 (VHH)
VHH: B25 VHH with A61V, Y95F
notes: 4
B27: anti-GCC single domain antibody SEQ ID NO. 10 (VHH)
VHH: AVQLVESGGGMVQPGGSLRLSCAASGFTFGAYDMTWVRQAPGKGAEWVSAINSGGDRTYYTDSVKGRFTISRDNAKNTLYLQMNSLKPADTAKYYCGTKIPQFLRGQGTQVTVSS
notes: Alpaca-derived sdAb
B28: anti-GCC single domain antibody SEQ ID NO. 4 (VHH)
VHH: B25 VHH with A61V, S75A, N77R, L79V, R87K, A88P, Y95F
notes: Alpaca-derived sdAb

biological target: T1, GCC expressed on T84 cells (UniProt P25092 24-1073, limits assumed); assay: flow cytometry on T84 cells expressing GCC, 300 nm [sic], PE-anti human Fc secondary; Blank 30.7
T1 construct: whole, on cells; also called guanylyl cyclase C; GUCY2C
T1 sequence (P25092 24-1073 limits assumed): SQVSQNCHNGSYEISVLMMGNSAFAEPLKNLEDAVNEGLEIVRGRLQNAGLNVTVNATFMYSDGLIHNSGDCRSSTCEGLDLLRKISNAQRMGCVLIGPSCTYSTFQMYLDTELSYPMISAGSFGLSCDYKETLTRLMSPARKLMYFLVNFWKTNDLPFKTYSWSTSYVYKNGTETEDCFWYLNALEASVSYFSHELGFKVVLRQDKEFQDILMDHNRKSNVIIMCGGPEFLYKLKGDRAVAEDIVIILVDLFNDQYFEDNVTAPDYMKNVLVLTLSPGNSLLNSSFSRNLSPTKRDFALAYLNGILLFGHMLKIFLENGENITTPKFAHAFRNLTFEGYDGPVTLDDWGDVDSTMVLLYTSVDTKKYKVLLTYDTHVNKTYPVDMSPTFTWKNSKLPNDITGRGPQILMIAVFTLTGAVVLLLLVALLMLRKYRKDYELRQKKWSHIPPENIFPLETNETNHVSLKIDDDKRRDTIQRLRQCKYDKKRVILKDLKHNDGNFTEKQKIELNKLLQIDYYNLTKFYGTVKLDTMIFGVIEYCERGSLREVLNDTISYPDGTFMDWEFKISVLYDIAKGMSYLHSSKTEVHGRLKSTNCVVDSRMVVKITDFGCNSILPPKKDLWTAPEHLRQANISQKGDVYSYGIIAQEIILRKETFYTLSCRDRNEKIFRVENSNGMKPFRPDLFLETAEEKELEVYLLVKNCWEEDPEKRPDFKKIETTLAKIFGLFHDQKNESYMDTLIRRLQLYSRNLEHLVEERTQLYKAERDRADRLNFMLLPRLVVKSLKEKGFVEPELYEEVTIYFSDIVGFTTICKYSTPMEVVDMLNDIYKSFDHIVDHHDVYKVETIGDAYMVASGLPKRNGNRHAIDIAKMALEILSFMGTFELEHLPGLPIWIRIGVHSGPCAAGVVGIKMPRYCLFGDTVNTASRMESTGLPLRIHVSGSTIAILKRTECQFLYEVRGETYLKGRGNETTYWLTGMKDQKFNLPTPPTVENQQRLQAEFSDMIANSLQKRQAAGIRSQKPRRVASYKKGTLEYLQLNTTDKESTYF
Method: T84 cells expressing GCC were used to evaluate the binding affinity of the anti-GCC sdAbs. Briefly, 50 μL T84 cells at density of 3×10⁶ cells/mL were incubated with 50 μL anti-GCC sdAbs at 4° C. for 2 hours. After incubation, the cells were washed three times with 400 μL FACS buffer, resuspended with PE-anti human Fc 2nd antibody (eBioscience 12-4998-82, 1:1000 dilution) and incubated at 4° C. for 60 min. Then the cells were collected and subject to FACS analysis.

Binder	Geometric mean MFI
B1	447
B2	298
B3	790
B4	910
B5	721
B6	669
B7	268
B8	371

biological target: T2, Human GUCY2C (captured on anti-human Fc capturing antibody, SPR) (human); assay: SPR (Biacore T200), human GUCY2C captured via anti-human Fc, humanized sdAb as analyte, 1:1 fit
T2 construct: also called human GCC; guanylyl cyclase C
T2 sequence (P25092 24-430): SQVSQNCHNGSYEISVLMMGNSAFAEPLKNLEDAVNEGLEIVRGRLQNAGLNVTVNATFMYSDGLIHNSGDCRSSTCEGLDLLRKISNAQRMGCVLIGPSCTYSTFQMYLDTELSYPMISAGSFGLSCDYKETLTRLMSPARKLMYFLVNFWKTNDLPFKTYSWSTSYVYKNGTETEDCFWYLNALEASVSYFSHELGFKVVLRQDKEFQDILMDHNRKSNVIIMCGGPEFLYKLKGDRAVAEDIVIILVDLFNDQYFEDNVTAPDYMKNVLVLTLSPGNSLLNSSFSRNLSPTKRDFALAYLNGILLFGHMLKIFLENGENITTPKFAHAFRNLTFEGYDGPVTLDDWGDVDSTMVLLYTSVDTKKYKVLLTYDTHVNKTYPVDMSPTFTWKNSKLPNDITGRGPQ
Method: (§1) Exemplary humanized anti-GCC sdAbs of the present application were diluted with 1×HBS-EP buffer. Human GUCY2C was captured on anti-human Fc capturing Ab-immobilized sCM5 chip. Then the humanized anti-GCC sdAb samples were injected with a flow rate of 10 μl/min for 180 sec, followed by dissociation for 800 sec. The binding curves were locally fitted with Biacore® T200 analysis software (BIAevaluation) using a 1:1 Langmuir binding model.

Binder	Kd	koff	kon
B9	0.235 nM	0.000181 s⁻¹	768000 M⁻¹ s⁻¹
B10	1.29 nM	0.00277 s⁻¹	2.15e+06 M⁻¹ s⁻¹
B11	118 nM	0.00462 s⁻¹	39100 M⁻¹ s⁻¹
B12	195 nM	0.0044 s⁻¹	22600 M⁻¹ s⁻¹
B13	2.37 nM	0.000546 s⁻¹	231000 M⁻¹ s⁻¹
B14	2.03 nM	0.000531 s⁻¹	261000 M⁻¹ s⁻¹
B15	11.8 nM	0.00213 s⁻¹	181000 M⁻¹ s⁻¹
B16	54.6 nM	0.01 s⁻¹	183000 M⁻¹ s⁻¹
B17	0.115 nM	0.000177 s⁻¹	1.53e+06 M⁻¹ s⁻¹
B18	0.425 nM	0.000633 s⁻¹	1.49e+06 M⁻¹ s⁻¹
B19	0.759 nM	0.000788 s⁻¹	1.04e+06 M⁻¹ s⁻¹
B20	0.155 nM	0.000337 s⁻¹	2.17e+06 M⁻¹ s⁻¹
B21	0.187 nM	0.000309 s⁻¹	1.66e+06 M⁻¹ s⁻¹
B22	0.324 nM	0.000191 s⁻¹	591000 M⁻¹ s⁻¹
B23	0.574 nM	0.000218 s⁻¹	380000 M⁻¹ s⁻¹
B24	15.4 nM	0.0636 s⁻¹	4.14e+06 M⁻¹ s⁻¹
B25	1.74 nM	0.000143 s⁻¹	82600 M⁻¹ s⁻¹
B26	3.68 nM	0.000226 s⁻¹	61300 M⁻¹ s⁻¹

biological target: T2, Human GUCY2C (captured on anti-human Fc …); assay: SPR (Biacore T200), human GUCY2C captured via anti-human Fc, sdAb as analyte, 1:1 fit
Method: as §1, with “Anti-GCC” for “Exemplary humanized anti-GCC”, “sdAbs” for “sdAbs of the present application”, “Then” for “Then the humanized”

Binder	Kd	koff	kon
B1	0.116 nM	0.00103 s⁻¹	8.84e+06 M⁻¹ s⁻¹
B2	0.753 nM	0.000172 s⁻¹	228000 M⁻¹ s⁻¹
B3	0.56 nM	0.0002 s⁻¹	357000 M⁻¹ s⁻¹
B4	0.218 nM	0.00018 s⁻¹	827000 M⁻¹ s⁻¹
B5	0.0759 nM	4.67e-05 s⁻¹	615000 M⁻¹ s⁻¹
B6	0.0259 nM	6.7e-05 s⁻¹	2.59e+06 M⁻¹ s⁻¹
B7	2.53 nM	0.000395 s⁻¹	156000 M⁻¹ s⁻¹
B27	0.427 nM	0.000702 s⁻¹	1.64e+06 M⁻¹ s⁻¹
B8	0.431 nM	0.000142 s⁻¹	330000 M⁻¹ s⁻¹
B28	0.414 nM	0.000149 s⁻¹	359000 M⁻¹ s⁻¹
